These are literature values, as cited in article PMC4526808.

Like-named read-outs stand apart in the source and are kept apart here.

Data set [1] concerns the target PKA RIIα D/D domain (UniProt P13861).
The target is the same in data set [2]. The source holds these as a separate data set.
Data set [3] concerns the target PKA RIα D/D domain (UniProt P10644).
For data set [4], the target named is PKA RIIα D/D domain (UniProt P13861). The source holds these as a separate data set.
Data set [5] has as its target PKA RIα D/D domain (UniProt P10644). The source holds these as a separate data set.

UniProt P13861, sequence (P13861 2-45): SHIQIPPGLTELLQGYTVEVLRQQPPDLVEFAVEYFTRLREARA
UniProt P10644, sequence (P10644 1-61): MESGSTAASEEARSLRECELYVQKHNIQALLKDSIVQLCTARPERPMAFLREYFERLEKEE

On to AKAP-is, for which the Kd in data set [1] is 0.4 nM.

Take Ht31: the Kd is 2.2 nM in data set [2] and 1300 nM in data set [3].

RIAD: the Kd in data set [4] was 1800 nM; in data set [5] it was 1 nM.

In general, Kd refers to the constant that tells how readily two partners part at equilibrium.
